From the RNAGym collection of RNA variant scans (doi:10.1073/pnas.2313332121)

B1: TPR t1 (parent)
chain: GACCAAUCUGCCCUCAGAGCUCGAGAACAUCUUCGGAUGCAGAGGAGGCAGGCUUCGGUGGCGCGAUAGCGCCAACGUCCUCAACCUCCAAUGCAUCCCACCACAUGAUGAUGCCUGAAGAGCCUUGGUUUUUUG

Variants of: B1
Experiment: polymerase ribozyme fitness, log enrichment relative to wild type (log ratio); higher = more active; in vitro selection for triplet polymerase activity
Method in brief: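 Fitness measures genotype enrichment against wild-type enrichment on a logarithmic scale, with inverse-variance-weighted averaging of replicates. The logarithm is base 2, and genotypes were kept only with ≥10 input reads and ≥1 read per output in Illumina sequencing. The sequenced libraries came from one triplicate in vitro selection round, including frozen incubation at −7 °C, of PCR-built, transcribed mutant libraries of each subunit of a heterodimeric triplet polymerase ribozyme.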

| Variant | polymerase ribozyme fitness (log ratio) |
| --- | --- |
| C12A C53U C73A | -0.585 |
| C12A C15U G71U A121C G127U | 0.118 |
| C12G A27C C104U G113U G120A G122A U130A | -6.9 |
| C11U C22G A111G G122U U129C | -6.1 |
| C11U C79G U92A U106C U112A | -5.83 |
| C12G A26U C34U G42U G44U C62G U96C U106A U109A C115G | -6.33 |
| C11U C34G A46U G120A A121G | -5.6 |
| C12A C62A C98A | -6.54 |
| C12A G19U G57U | -3.2 |
| C11U G19A C53G U55A A91C | -2.36 |
| C12A G42C C73A C80U A118G | -3.44 |
| C12A C40U U87G | -1.56 |
| C11U C49U C101A | -2.29 |
| C12A C62G U133G | -1.75 |
| C12A C72A C99A G120U G128U | -7.62 |
| C11U C22A C124U | -3.19 |
| C12A A18C U112C C124U | -0.619 |
| C11U G45A G48A | -2.77 |
| C12G C15U C31A G44A G47A G63C A84U G110C | -6.78 |
| C12G C22U U32G G69U C72G C102A A111U G122U | -5.99 |
| C12G G61A G128U | -1.84 |
| C12G G52U | -0.405 |
| C12A G19U G42U C70A U92A U112C U129G | -5.98 |
| C11U C62G | -1.21 |

| Variant | polymerase ribozyme fitness (log ratio) |
| --- | --- |
| C12U A18G A41U G47C U109G C124G | -2.39 |
| C12G G19A C20U C98U | -3.29 |
| C11U G39U C102A C104U A111G | -1.71 |
| C12A C70G C89A G110A U129A | -6.66 |
| C12A U130C | -1.06 |
| C12G A27C | -2.38 |
| C11U C28G A83C C85U | -4.39 |
| C11U U129A | -2.36 |
| C12A C64U U133G | -0.934 |
| C12G G60A C115G | -4.95 |
| C12G C72G U87C | 0.909 |
| C12G G113U | -3.38 |
| C12G U21A G77C A84U | -1.73 |
| C11U U59A A91G A118U | -1.98 |
| C12G G17A C62U C101U | -5.49 |
| C11U C94G | -1.27 |
| C11U C94U | -1.24 |
| C12G G51C G71A | -6.1 |
| C12A U112C | 0.835 |
| C12A A26U G36A G48C C72U | -4.02 |
| C12U A16U C20U G71C C114A G127U | -3.54 |
| C12A A50C C53U A74C | -0.606 |
| C12G C70U U106A | 0.277 |
| C12A C28U C86U C88U C101A A111C | -7.09 |

| Variant | polymerase ribozyme fitness (log ratio) |
| --- | --- |
| C12G U14C U59G C73G | -2.57 |
| C12G G36U G61U A111C | 0.246 |
| C12G C79A | -1.01 |
| C12A C123A | 0.369 |
| C11U G113U | -2.7 |
| C12G C40U C97U | -1.01 |
| C11U C73U C114A C123U | -2.7 |
| C12U A18C C62U | -2.39 |
| C12G G110U U130A | -1.34 |
| C12G G19A G93U U106A A111G C115A | -6.62 |
| C11U U96G | -1.1 |
| C11U C22G A26C | -3.57 |
| C12A G44A C72G A100U | -2.22 |
| C11U G128A | -2.45 |
| C12G A46U C102A | -2.85 |
| C12G C70U | -0.468 |
| C12G C70G | -2.83 |
| C12A C34G G122U | -5.34 |
| C12G G47U U87G U116A C124A | -1.26 |
| C12G C28G A37U C72U G110U | -0.76 |
| C12A C56A C115U G120A C123A | -1.84 |
| C12G A43U U92G C104A G117U A118U | -5.1 |
| C11U C56A U116C | -2.85 |
| C12U A16G U106A | 0.278 |

| Variant | polymerase ribozyme fitness (log ratio) |
| --- | --- |
| C11U C49U | -1.29 |
| C11U C53U G110A U129A | -3.35 |
| C12A C89U C101A A111U | -5.17 |
| C11U U112A | 1.19 |
| C11U U112C | 1.46 |
| C11U G52A A118G | -0.222 |
| C12G U78A G93A C124G | 0.89 |
| C11U C82A | -1.02 |
| C12G A26C A27C G36U C97A C101U U109A | -7.51 |
| C12U A18C G52U C79A G127C | -2.61 |
| C12A C20A G63C G113U C115U U131A | -3.61 |
| C12G A121U | 1.78 |
| C12G G39U G61U | 0.0718 |
| C12G C15G G47C C82G | -4.81 |
| C12A A46U G47C C124G | -0.295 |
| C12G G71C A105G U125A | -4.36 |
| C12G U33G C76A A100C C123G | -5.88 |
| C11U C34A U87A | -3.12 |
| C11U C70A A121C | 0.0688 |
| C12A G52A C73U A91G | -2.04 |
| C12G A46C C53A C104A C123U | -1.14 |
| C12A C22U U78C A121U | -2.5 |
| C12G U14C C62U C85U C86U | -1.07 |
| C12A G61C | -2.46 |

| Variant | polymerase ribozyme fitness (log ratio) |
| --- | --- |
| C12A G48A U55C G57U U59G C85U | -3.61 |
| C11U U87G G113U | -4.06 |
| C12A G127U | -1.39 |
| C12A G117U | -1.72 |
| C12G G39U G61A U106C G127C | -2.63 |
| C12G A46C G60U U109C | -6.49 |
| C11U C22U U38C | -4.76 |
| C12A C62U G128U | -3.03 |
| C11U G44A | -1.49 |
| C11U G44C | -1.47 |
| C12A C86A | -0.926 |
| C12A A27G C34G G61U A118C C123G | -8.42 |
| C12G G117C U126G | -3.28 |
| C12A C53U | -0.724 |
| C12A G113A | -2.14 |
| C11U C56U G128C | -3.11 |
| C12A C49A C82A | -1.3 |
| C12A C15U G52U G63A C86U G117C | -5.35 |
| C12A U87A C89G C94A G113A | -6.04 |
| C12G G36C G58A | -1.29 |
| C12A C99U | -3.06 |
| C11U G19A G61A U131G | -3.33 |
| C12G C28G A37U G110U | 0.364 |
| C11U G69C | -1.87 |

| Variant | polymerase ribozyme fitness (log ratio) |
| --- | --- |
| C11U G69A | -2.2 |
| C12A C79A A111G | -2.24 |
| C12G C115U U133A | -0.348 |
| C11U G71U C123A | 1.29 |
| C12A A37C | -1.93 |
| C12A C72A | 0.329 |
| C12G G47C C53U C56U G113A A118C | -5.05 |
| C12A C22A C40U G58C C86A U112G | -5.73 |
| C12A G57U G71U | -0.629 |
| C12G G45U C72A G127A | -2.17 |
| C12A G45U C56U G93A | -2.57 |
| C12A A46U C114U | -3.89 |
| C12A U133A | -0.907 |
| C12G G42A | -1.36 |
| C12G G44A C73G C82U | -0.977 |
| C12U A16C C73A A83C | 0.284 |
| C12A A41C C72U U92G A111G | -1.91 |
| C12A G36U | -1.6 |
| C12A G36C | -1.69 |
| C12G U59G A90G G113A | -2.53 |
| C12G C28U C72U C123U U125G | -0.502 |
| C12A C70A U92A | -5.67 |
| C11U G60U U78C U116C | -2.11 |
| C12G A46U C82G | -1.75 |

| Variant | polymerase ribozyme fitness (log ratio) |
| --- | --- |
| C12A C15A C70A C72A G110U | -6.17 |
| C12A C88U U109A C114A U133C | -6.51 |
| C11U U33A | -4.31 |
| C12U A18U C40U U106C C114G | -2.23 |
| C12G C104U G128C U133A | -0.738 |
| C12A A29U C86A | -2.52 |
| C12G C15U G48A G61A U81G C123U | -2.3 |
| C12G A26U G77A | -2.58 |
| C12A C13A U55A G63U U131A | -2.53 |
| C12A G71U G117C U126C | -6.35 |
| C12A C40U A111C U131A | -0.623 |
| C12A G51U G71U U133C | -4.34 |
| C12A C40G C104U G128U | -3.15 |
| C12A A68G A84C | -4.19 |
| C12G C79A A91C | -2.84 |
| C12A G110A C123U | -1.84 |
| C12A G57A G69C U106C | -2.99 |
| C11U C72G | -0.586 |
| C12A G47A C72G G93A | -4.15 |
| C11U G93A | -0.986 |
| C12G C94G A105C | -4.19 |
| C11U C22A A37G A68G C72A U109A | -5.84 |
| C12G A66C G93A C104U | -1.71 |
